What was measured:
His-Smc1α = molecular target: T1, His-Smc1α (human, UniProt Q14683 1-1233); assay: pull-down; GST or GST-NudCL2 protein incubated with each of the purified His-tagged cohesin subunits from Sf9 cells; Western analysis; settings: both partners purified
T1 construct: Full-length human SMC1A cloned by RT-PCR into pFastBac-HT A (His-tag vector); pFastBac-HT A is recalled to add the His tag at the N-terminus; also called His-tagged Smc1α; SMC1A; source: Sf9 insect cells (Bac-to-Bac baculovirus), purified with nickel-nitrilotriacetic acid beads
T1 sequence (looked up): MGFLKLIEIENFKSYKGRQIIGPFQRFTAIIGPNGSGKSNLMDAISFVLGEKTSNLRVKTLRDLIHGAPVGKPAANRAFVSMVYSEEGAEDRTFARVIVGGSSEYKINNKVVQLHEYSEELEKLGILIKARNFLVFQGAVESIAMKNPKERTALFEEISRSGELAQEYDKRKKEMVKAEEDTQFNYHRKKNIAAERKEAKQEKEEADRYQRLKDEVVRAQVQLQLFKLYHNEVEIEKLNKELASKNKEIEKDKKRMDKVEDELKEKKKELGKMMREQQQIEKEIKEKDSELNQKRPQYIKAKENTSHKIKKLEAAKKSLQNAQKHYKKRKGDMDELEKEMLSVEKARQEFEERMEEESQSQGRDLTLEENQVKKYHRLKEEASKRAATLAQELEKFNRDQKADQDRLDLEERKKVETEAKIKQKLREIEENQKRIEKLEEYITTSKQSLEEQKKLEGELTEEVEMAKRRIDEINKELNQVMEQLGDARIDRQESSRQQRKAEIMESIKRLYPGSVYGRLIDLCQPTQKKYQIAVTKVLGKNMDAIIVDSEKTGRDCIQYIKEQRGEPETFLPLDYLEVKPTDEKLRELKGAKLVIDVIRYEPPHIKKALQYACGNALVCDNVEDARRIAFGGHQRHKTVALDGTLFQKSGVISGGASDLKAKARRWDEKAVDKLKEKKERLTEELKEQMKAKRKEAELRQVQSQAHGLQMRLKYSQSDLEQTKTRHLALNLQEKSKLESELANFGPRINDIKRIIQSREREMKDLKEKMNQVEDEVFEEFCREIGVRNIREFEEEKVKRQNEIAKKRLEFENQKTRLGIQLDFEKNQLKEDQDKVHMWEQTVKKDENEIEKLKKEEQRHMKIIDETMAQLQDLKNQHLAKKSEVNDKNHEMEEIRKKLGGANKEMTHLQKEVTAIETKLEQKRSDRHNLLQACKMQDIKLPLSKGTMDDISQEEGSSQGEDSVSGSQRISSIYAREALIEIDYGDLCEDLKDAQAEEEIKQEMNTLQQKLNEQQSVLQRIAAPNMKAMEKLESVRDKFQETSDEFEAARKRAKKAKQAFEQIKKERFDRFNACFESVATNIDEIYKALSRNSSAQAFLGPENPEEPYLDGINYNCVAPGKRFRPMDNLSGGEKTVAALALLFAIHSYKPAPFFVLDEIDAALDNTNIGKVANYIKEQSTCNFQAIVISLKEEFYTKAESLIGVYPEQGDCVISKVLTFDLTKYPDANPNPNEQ

His-Smc3 = molecular target: T2, His-Smc3 (human, UniProt Q9UQE7 1-1217); assay: as above; settings: both partners purified
T2 construct: Full-length human SMC3 cloned by RT-PCR into pFastBac-HT A (His-tag vector); pFastBac-HT A is recalled to add the His tag at the N-terminus; also called His-tagged Smc3; source: Sf9 insect cells (Bac-to-Bac baculovirus), purified with nickel-nitrilotriacetic acid beads
T2 sequence (Q9UQE7 whole entry): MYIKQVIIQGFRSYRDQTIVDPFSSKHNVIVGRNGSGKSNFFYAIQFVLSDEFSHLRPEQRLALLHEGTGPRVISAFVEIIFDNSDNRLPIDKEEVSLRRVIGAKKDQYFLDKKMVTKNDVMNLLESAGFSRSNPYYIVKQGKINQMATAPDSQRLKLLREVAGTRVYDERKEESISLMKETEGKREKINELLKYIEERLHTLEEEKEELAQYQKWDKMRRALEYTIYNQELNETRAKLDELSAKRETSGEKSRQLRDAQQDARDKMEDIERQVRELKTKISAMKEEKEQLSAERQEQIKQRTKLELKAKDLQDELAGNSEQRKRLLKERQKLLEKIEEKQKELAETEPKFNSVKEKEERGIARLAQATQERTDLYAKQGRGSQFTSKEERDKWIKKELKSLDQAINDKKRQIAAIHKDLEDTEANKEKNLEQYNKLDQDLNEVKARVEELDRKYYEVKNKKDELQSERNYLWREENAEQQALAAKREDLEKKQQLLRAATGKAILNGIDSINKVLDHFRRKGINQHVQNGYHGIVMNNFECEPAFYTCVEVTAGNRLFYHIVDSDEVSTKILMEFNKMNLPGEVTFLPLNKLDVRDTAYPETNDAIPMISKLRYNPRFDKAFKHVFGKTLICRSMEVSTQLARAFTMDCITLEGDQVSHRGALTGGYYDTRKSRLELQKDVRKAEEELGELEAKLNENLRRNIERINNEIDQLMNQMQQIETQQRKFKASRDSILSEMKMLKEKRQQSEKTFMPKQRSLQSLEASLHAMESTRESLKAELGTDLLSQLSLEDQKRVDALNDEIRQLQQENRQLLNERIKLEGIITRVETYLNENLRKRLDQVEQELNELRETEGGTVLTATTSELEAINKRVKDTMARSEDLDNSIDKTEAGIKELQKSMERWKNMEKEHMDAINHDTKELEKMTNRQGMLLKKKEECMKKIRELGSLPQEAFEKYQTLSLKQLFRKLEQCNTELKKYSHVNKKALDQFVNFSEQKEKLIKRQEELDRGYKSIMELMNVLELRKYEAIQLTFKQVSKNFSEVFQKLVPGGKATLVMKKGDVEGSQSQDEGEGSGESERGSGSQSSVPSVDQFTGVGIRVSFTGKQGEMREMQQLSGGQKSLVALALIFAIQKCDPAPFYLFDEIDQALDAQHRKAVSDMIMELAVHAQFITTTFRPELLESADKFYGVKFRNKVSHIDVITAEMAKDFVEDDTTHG

B1: GST-NudCL2 (natural protein, human, UniProt Q8WVJ2 1-157, looked up)
chain: MSAPFEERSGVVPCGTPWGQWYQTLEEVFIEVQVPPGTRAQDIQCGLQSRHVALSVGGREILKGKLFDSTIADEGTWTLEDRKMVRIVLTKTKRDAANCWTSLLESEYAADPWVQDQMQRKLTLERFQKENPGFDFSGAEISGNYTKGGPDFSNLEK
notes: NudCL2 (NudC-like protein 2), human; also called NudC-like protein 2; source: purified from bacteria
- binding result (His-Smc1α): binds
- binding result (His-Smc3): binds

From PMC6339671, “NudCL2 is an Hsp90 cochaperone to regulate sister chromatid cohesion by stabilizing cohesin subunits” (Cellular and Molecular Life Sciences: CMLS, 2018)
